Experimental data: the nanobody polyreactivity screen of Harvey et al. (2022)

test: yeast display, Sf9 membrane polyspecificity reagent, FACS + sequencing; frameworks hold sequencing errors
In short: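 In a synthetic yeast display library (Saccharomyces cerevisiae BJ5465), nanobody expression was induced with galactose for 36–48 hours. FACS gates were set low and high (top ~1%) using anti-HA fluorescence for expression and streptavidin fluorescence for binding of the Sf9 membrane reagent. Each polyreactivity label is drawn from the gate of origin.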

Sequence	polyreactivity (PSR sort gate)
QVQLVESGGGLVQAGGSLRLSCSASGITFIYYMGWYIQAPGKERELVAAITWSGGSTYYADSVKGRFTISRDNAKNTVYLQMNSLKPEDTAVYYCAAVRRAEEYDYCGQGTQVTVSS	low polyreactivity
QVQLVESGGGLVQAGGSLRLSCSASGRIFSANAMGWYRQAPVKERELVATISTGGGRTYYADSVKGRFTISRDNAKNTVYLQMNSLKPEDTAVYYCNATRNYARVRYYYWGQGNQVTVSS	high polyreactivity
QVQLVESGGGLVQAGGSLRLSCSASGRIFSPYAMGWYRQAPGKERELVAAISWRGSSTYYADSVKGRFTISPDNAKNTVYLQMNSLKPEDTAVYYCAAPSSKYWGQGTQVTVSS	low polyreactivity
QVQLVESGGGLVQAGGSLRLSCSASGRIFSTYAMGWYRQAPGKERELVAAINKIGGSTYYADSVKGRFTISRDNAKNTVYLQMNSLKPEDTAVYYCAADAPYYPVRRYYYWGQGTQVTVSS	low polyreactivity
QVQLVESGGGLVQAGGSLRLSCSASGRILYSYSMGWYRQAPGKEREFVAAIRRSGGSTYYADSVKGRFTISRDNAKNTVYLQMNSLKPEDTAVYYCAAGRRYSGSYDYWGQGTQVTVSS	high polyreactivity
QVQLVESGGGLVQAGGSLRLSCSASGRTFANYAMGWYRQAPGKERELVAAISSGGNTYYADSVKGRCTISRDNAKNTVYLQMNSLKPEDTAVYYCAAQPYYYFDEYTQYDYWGQGTQVTVSS	high polyreactivity
QVQLVESGGGLVQAGGSLRLSCSASGRTFATNAMGWYRQAPGKERELVAAISGSGGRTYYADSVKGRFTISRDIAKNTVYLQMNSLKPEDTAVYYCAAQKVPYRATNYYYWGQGTQVTVSS	high polyreactivity
QVQLVESGGGLVQAGGSLRLSCSASGRTFDVYAMGWYRQAPGKERELVATIRSDGSTTYADSVKGRFTISRDNAKNTVYLQMNSLKPEDTAVYFCAADFRSGFSSSTTPVQSDWGQGTQVTVSS	low polyreactivity
QVQLVESGGGLVQAGGSLRLSCSASGRTFGYNAMGRYRQEPGKERELVAAINWSGASTYYADSVKGRFTISRDNAKNTVYLQMNSLKPEDTAVYYCAADYSYIYGFDYWGQGTQVTVSS	low polyreactivity
QVQLVESGGGLVQAGGSLRLSCSASGRTFSSNAMGWYRKAPGKERELVAAITWSGGTTYYADSVKGRFTISRDNAKNTVYLQMNSQKPEDTAVYYCNAKRRGYTASVGYWGQGTQVTVSS	high polyreactivity
QVQLVESGGGLVQAGGSLRLSCSASGRTNWLNAMGLYRQAPGKERELVATISSSSGSTTYADSVKGRFTISRDNAKNTVYLQMNSLKPEDTAVYYCNVDDPFYSGVVEFDYWGQGTQVTVSS	low polyreactivity
QVQLVESGGGLVQAGGSLRLSCSASGSIFGFYAMGWYRQEPGKERELVAAIDSGDSTNYADSVKGRFTISRDNAKNTVYLQMNSLKPEDTAVYYCNARYTLFARYGYDYWGQGTQVTVSS	low polyreactivity
QVQLVESGGGLVQAGGSLRLSCSASGSIFGSYAMGWYRQAPGKERELVARINTRGGSTYYADSVKGRFTISRDNAKYTVYIQMNSLKPADTAVYYCAKERRASVVRYDYWGQGTQVTVSS	low polyreactivity
QVQLVESGGGLVQAGGSLRLSCSASGSIFPFNAMGWYRQAPGKERELVAAIRWSDGRTYYADSVKGRFTISRDNAKNTVYLQMNSLKPEDTAVYYCAAKSYWGQGTQVTVSS	high polyreactivity
QVQLVESGGGLVQAGGSLRLSCSASGSIFRYNAMGWYRQAPGKERELVAGITSGGSTNYADSVKGRFTISRDNAKNTVYLQMNSLKPEDTAVYYCATGTRSYYRWWRLMNYWGQGTQVTVSS	high polyreactivity
QVQLVESGGGLVQAGGSLRLSCSASGSIIYANAMGWYRPAPGKEREFVATITDSGAITYYADSVKGRFTISRDNAKNTVYLQMNSLKPEDTAVYYCNKDLVVYYVPTHDYDYWGQGTQVTVSS	low polyreactivity
QVQLVESGGGLVQAGGSLRLSCSASGSISHYAMGWYRQAPGKERELVAAISRRGGSTYYADSVKGRFTISRDNAKNTVYLQKNSLKPEDTAVYYCNKATSYFTVRGYDYCGQGTQVTVSS	high polyreactivity
QVQLVESGGGLVQAGGSLRLSCSASGSTFHRYAMGWYIQAPGKERELVARINGSGGSTYYADSVKGRFTISRDNAKNTVYLQMNSLKPEDSAVYYCAADGLYYTYGYDYWGQGTQVTVSS	low polyreactivity
QVQLVESGGGLVQAGGSLRLSCSASGSTFRWNAMGWYRQAPGKERELVASITSGGSTNYADSVKGRFTMSRDNAKNTVYLQLNSLKPEDTAVSYCNADVRRYSNYVWLYDYWGQGTQVTVSS	low polyreactivity
QVQLVESGGGLVQAGGSLRLSCSASGSTLAKYAMGWYRQAPGKERELVAAISWSGGRTYYADSVKGRFTISRDNAKNTVYLPMNSLKPEDTAVYYGAARALSSRTYHDDYWGQGTQVTVSS	high polyreactivity
QVQLVESGGGLVQAGGSLRLSCSATGFIFYRYAMGWYRQAPGKERELVAAISSSGGSTYYADSVKGRFTISRDNAKTTVSLQMNSLKPEDTAVYYCNKRPQQYRPGYDYWGQGTQVTVSS	high polyreactivity
QVQLVESGGGLVQAGGSLRLSCSAYGLILRTYGMGWYRQAPGKERELVAVISSGGSTYYADSVKGRFTISRDNEKNTVYLQMNSLKPEDTAVYYCAVRSSWYEGDYWGQGTQVTVSS	low polyreactivity

Sequence	polyreactivity (PSR sort gate)
QVQLVESGGGLVQAGGSLRLSCSDSGFIYRMYAMGWYRQAHGKETELVSAISSDASTNYADSVKGRFTISRDNAKNTVYLQMNSLKPEDTAVYYCAAAVKRGYAQSFISDGYGYWGQGTQVTVSS	low polyreactivity
QVQLVESGGGLVQAGGSLRLSCSPSGSILYGNAMGWYRQAPGKERELVAAITSGGSTYYADSVKGRFTISRDNAKNTVYLQMNSLKPEDTAVYYCNTVWATKGDYWGHGTQVTVSS	high polyreactivity
QVQLVESGGGLVQAGGSLRLSCSSSGRIFNDYAMGWYRKAPGKERELVATYADSEKGRFTISRYTAKKTVYLQMNSLKPEDTAVYYCAADFPSFPDFRPEYDYWGQGPQVTVSS	low polyreactivity
QVQLVESGGGLVQAGGSLRLSCTASGFTFVYYAMGWYRQAPGKERELVASISRSGGSTYYADSVKGRFTISRDNAKNTVYLQMNSLKPEDTAVYYCNARYGRTALLDYWGQGTQVTVSS	high polyreactivity
QVQLVESGGGLVQAGGSLRLSCTASGFTSRIYAMGWYRQAPVKERELVAAITRGVSTNYSDSVKGRFTISRDNAKNTVYLQMNSLKPEDTAVYYCAARTSGSYPYRTINEYWGQGTQVTVSS	high polyreactivity
QVQLVESGGGLVQAGGSLRLSCVASGRTFATYTLGWYRPAPGKERELVAAITTSGGTYYADSVKGRFTISRDNAKNTVYLQMNSLKPEDTAVYYCANVSYYTSAPWYYYWGQGTQVTVSS	high polyreactivity
QVQLVESGGGLVQAGGSLRLSCVPTDMGWYRQAPGKERELVATISLSDGNTYYADSVKGRFTISRDNAKNTVYLQMNSLKPEDTAVYYCNALHTWHQTYDYWGQCTQVTVSS	low polyreactivity
QVQLVESGGGLVQAGGSLRLSFAASGFTFCIYAMGWYRQAPGKERELVAAINVSEGSTYYADSVKGRFTISRDNAKNTVYLQMNSLKPEDTAVYYCDAYLYDTIYTSYREYDYWGQGTQVTVSS	low polyreactivity
QVQLVESGGGLVQAGGSLRLSFAASGFTFQWYGMGWSRQAPGKERELVAAINYSGGSTYYADSVKGSFTLSRDNAKNTVYLQMNSLKPEDTAVYYCAAEFYSWPWLRLAPWSMDYWGQGTQVTVSS	high polyreactivity
QVQLVESGGGLVQAGGSLRLSFAASGFTFRLYAMGWYRQAPGKERELVAAITSSSGSTYYADSVKGRFTISRDNAKNTVYLQMNSLKPEDTAVYYCNADRGDSSRRYGYWGQGTQVTVSS	high polyreactivity
QVQLVESGGGLVQAGGSLRLSFAASGFTFRNYAKGWYRQAPGKERELVATISRSGCSTYYADSVKGRFTISRDNAKNTVYLQMNSLKPEDTAVYYCAAKTILWKYYPYYYVTYDYWGQGTQVTVSS	high polyreactivity
QVQLVESGGGLVQAGGSLRLSFAASGGIFWHYTRGWYRQAPGKERELVAAITRRGGSTYYADSVKGRFTISRDNAKNTVYLQMNSLKPEDTAVYYCAADFLPQSYNWYDYWGQGTQVTVSS	low polyreactivity
QVQLVESGGGLVQAGGSLRLSFAASGLIFGYNAMGWYRQAPGTERELVAAISRRGTSTYYADSVKGRFTISRDNAKNTVYLQMNSLKPEDTAVYYCATYGVNPPGVEEYNYWGQGTQVTVSS	high polyreactivity
QVQLVESGGGLVQAGGSLRLSFAASGLIFPSYTMGWYRQAPGNYGELVAGINSGGSTNYAESVMGRFTISRDIAKNTDYLQMNSQKAEHTAVYYCAKDNNYYWYVSPRDYWGQGTQVTVSS	low polyreactivity
QVQLVESGGGLVQAGGSLRLSFAASGLTLYKNGMGWYRQAPGKETELVAVISRSGGRTYYADSVQGRFTISRDNAKNTVYLQMNSLKPEDTAVYYCAARQYGPRYTYYYWGQGTQVTVSS	high polyreactivity
QVQLVESGGGLVQAGGSLRLSFAASGNIFTFNAMGLYRQATGKDRELDAAIRSGGSTNYADSVKGRFTISRDNAKNTVDLQMNSLKPEDTAVYYCAAKRYVQGYVYRYGYWGQGTQVTVSS	high polyreactivity
QVQLVESGGGLVQAGGSLRLSFAASGQTFRWNAMGWYRQAPGKERELFAAISRGDRTNYADSVKGRFTISRDNAKNTVYLQMNSLNPEDTAVYYCAKTYQTNYYNGTWGVTSYGYWGQGTQVTVSS	high polyreactivity
QVQLVESGGGLVQAGGSLRLSFAASGRIIRGYAMGRDRQAPGKERELVAAINGGDSTFADSVKGRFTISRDNAKNTVYLQMNSLKPEDTAVYYCAAAHYFLGPQGASFYYWGQGTQVTVSA	low polyreactivity
QVQLVESGGGLVQAGGSLRLSFAASGRMFTGYAMGWYRQAHGKERELVADITSDGGTYYADSVKGRFTISRDNAKNSVYLQMNSLKPEDTAVYYCAAPRVVFGSSGEDDHWGQGTQVTVSS	low polyreactivity
QVQLVESGGGLVQAGGSLRLSFAASGRTFRYYAMGWYRQAPGKERELVAAISGRGGSTYYADSVKARFTISRDNAKNSVYLQMNRQKPEDTAVYYCAASFYSIRYDYWGQGTQVTVSS	high polyreactivity
QVQLVESGGGLVQAGGSLRLSFAASGRTFVLYTMGWYRQAPGKERELVAAISVGGALTYYADSVRGRFTISRDNAKNTVYLQMNSLKPEDSAVYYCAARRHSRVKYRDYWGQGTQVTVSS	high polyreactivity
